Laboratory results as given in paper PMC3684959 (2013).

Target: Arp2/3 complex (Bos taurus, UniProt A7MB62, CK-666)
Assay: fluorescence anisotropy

Kd: 1.2 µM
B1: cortactin NTA N-terminal acidic region (protein)
chain: MWKASAGHAVSIAQDDAGADDWETDPDFVNDVSEKEQRWGAKTVQGSGHQEHINIHKLRENVFQEHQTLKEKELETGPKASHGY
